The text below walks through data of PMC3819411.

The test concerns the target Bardet-Biedl syndrome 5 protein (BBS5), endogenous in bovine rod outer segments (bovine (endogenous in rod outer segments)). Kind of test: co-IP.

Turning to “arrestin1 (Arr1), endogenous in bovine rod outer segments (from UniProt P08168 1-404) (natural protein)”, the reduction of co-precipitated Arr1 after light or phorbol ester against dark stood at 50%.
